Results as given in patent publication US20030208060A1.
Blank lines part the entries; values can stand above or below the substance they belong to.

Legend:
[1] = molecular target: MBP200R (reduced, ligand-binding form generated from MBP200 and MBP235 by 2-mercaptoethanol) (human) (UniProt Q0VD83); test: quantitative ligand blot after reduction, Scatchard; parameters: Bmax: unit not given here
[2] = molecular target: LDL receptor of cultured human skin fibroblasts (upregulated) (human) (UniProt P01130); test: binding of 125I-HTG-VLDL at 5 µg/ml to fibroblasts with induced LDL receptor, 4 °C
Chain of LDL receptor of cultured human skin fibroblasts (upregulated) (human) (P01130 22-860): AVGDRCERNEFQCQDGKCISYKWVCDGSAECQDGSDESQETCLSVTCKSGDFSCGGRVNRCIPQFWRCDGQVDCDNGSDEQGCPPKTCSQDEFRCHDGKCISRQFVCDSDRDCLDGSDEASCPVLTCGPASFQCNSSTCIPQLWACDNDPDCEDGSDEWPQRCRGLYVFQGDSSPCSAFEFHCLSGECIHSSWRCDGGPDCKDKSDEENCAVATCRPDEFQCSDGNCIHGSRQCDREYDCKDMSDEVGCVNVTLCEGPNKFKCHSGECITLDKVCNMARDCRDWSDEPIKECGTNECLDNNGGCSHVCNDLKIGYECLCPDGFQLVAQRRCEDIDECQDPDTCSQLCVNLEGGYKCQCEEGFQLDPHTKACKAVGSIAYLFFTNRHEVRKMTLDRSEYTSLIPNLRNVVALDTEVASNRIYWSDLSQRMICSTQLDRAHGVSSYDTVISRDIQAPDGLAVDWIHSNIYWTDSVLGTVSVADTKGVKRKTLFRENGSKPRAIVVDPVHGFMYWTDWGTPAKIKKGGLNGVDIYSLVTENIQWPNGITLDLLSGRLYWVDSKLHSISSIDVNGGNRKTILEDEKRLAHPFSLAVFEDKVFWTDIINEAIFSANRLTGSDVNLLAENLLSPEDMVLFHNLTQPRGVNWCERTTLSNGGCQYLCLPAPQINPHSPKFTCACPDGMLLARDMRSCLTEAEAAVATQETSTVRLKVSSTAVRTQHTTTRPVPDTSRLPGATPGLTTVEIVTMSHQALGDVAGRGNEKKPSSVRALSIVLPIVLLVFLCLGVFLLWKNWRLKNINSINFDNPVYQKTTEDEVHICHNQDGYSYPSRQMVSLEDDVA

[3] = molecular target: T1, apoE- and lipoprotein lipase-independent TGRLP receptor (apoB48R) on the surface of THP-1 monocyte-macrophages (human) (UniProt Q0VD83); test: binding of 125I-HTG-VLDL at 5 µg/ml to THP-1 macrophages, 4 °C
T1 sequence: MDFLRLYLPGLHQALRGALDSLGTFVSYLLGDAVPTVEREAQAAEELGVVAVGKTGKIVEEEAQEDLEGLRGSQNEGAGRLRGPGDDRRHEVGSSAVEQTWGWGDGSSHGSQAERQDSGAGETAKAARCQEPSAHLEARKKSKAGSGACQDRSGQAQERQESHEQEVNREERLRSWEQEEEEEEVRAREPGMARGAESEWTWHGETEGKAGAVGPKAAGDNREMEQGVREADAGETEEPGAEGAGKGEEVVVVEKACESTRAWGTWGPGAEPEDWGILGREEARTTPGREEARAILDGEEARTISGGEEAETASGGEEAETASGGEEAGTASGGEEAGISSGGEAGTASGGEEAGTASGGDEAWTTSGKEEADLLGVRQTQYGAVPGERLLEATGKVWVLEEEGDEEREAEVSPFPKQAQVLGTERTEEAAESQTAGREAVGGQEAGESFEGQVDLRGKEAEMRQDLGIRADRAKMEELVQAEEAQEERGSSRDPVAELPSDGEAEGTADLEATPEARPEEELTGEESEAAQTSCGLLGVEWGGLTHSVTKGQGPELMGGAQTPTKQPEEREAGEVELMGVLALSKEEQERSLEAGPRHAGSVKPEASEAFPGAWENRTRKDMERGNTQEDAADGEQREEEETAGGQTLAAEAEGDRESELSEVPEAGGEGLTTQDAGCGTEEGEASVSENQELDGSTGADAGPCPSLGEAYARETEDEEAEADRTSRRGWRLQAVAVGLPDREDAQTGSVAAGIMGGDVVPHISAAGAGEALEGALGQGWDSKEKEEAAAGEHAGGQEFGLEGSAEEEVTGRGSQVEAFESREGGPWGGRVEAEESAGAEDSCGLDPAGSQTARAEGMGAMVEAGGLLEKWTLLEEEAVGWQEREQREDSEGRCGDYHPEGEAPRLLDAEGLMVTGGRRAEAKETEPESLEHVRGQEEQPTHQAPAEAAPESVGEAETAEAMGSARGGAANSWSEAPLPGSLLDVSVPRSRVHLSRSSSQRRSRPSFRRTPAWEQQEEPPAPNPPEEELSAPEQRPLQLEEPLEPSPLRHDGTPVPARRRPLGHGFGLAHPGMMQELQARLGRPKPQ

[4] = molecular target: MBP200 (membrane binding protein of ~200 kDa; human monocyte-macrophage apoB48 receptor, apoB48R) (human) (UniProt Q0VD83); test: quantitative ligand blot, Scatchard; details: scale: ng apo very low density lipoprotein/mg cell protein
[5] = molecular target: MBP235 (membrane binding protein of ~235 kDa: MBP200 plus noncovalently bound subunit(s) of ~35 kDa) (human); test: quantitative ligand blot, Scatchard; details: scale: ng apo very low density lipoprotein/mg cell protein
[6] = molecular target: T1, apoE- and lipoprotein lipase-independent TGRLP receptor (apoB48R) on the surface of THP-1 monocyte-macrophages (human); test: specific binding of the 125I-lipoprotein to THP-1 macrophages, 4 °C
[7] = molecular target: hypertriglyceridemic very low density lipoprotein Sf100-400 (HTG-VLDL) (human) (UniProt P04114); test: competitive ligand blot: binding of biotinylated HTG-VLDL to MBP200 and MBP235, control IgG 400 µg/ml
[8] = molecular target: T1, apoE- and lipoprotein lipase-independent TGRLP receptor (apoB48R) on the surface of THP-1 monocyte-macrophages (human); test: competition with 125I-tryp-VLDL1 for THP-1 macrophages, 4 °C, lactoferrin 100 µg/ml
[9] = molecular target: T1, apoE- and lipoprotein lipase-independent TGRLP receptor (apoB48R) on the surface of THP-1 monocyte-macrophages (human); test: competition with 125I-HTG-VLDL1 for THP-1 macrophages, 4 °C, lactoferrin 500 µg/ml
[10] = molecular target: T1, apoE- and lipoprotein lipase-independent TGRLP receptor (apoB48R) on the surface of THP-1 monocyte-macrophages (human); test: competition with 125I-tryp-VLDL1 for THP-1 macrophages; set as 100% by definition
[11] = molecular target: T1, apoE- and lipoprotein lipase-independent TGRLP receptor (apoB48R) on the surface of THP-1 monocyte-macrophages (human); test: competition with 125I-tryp-VLDL2 for THP-1 macrophages; set as 100% by definition
[12] = molecular target: T1, apoE- and lipoprotein lipase-independent TGRLP receptor (apoB48R) on the surface of THP-1 monocyte-macrophages (human); test: competition with 125I-HTG-VLDL1 for THP-1 macrophages; set as 100% by definition

Chain of lactoferrin (P02788 20-710): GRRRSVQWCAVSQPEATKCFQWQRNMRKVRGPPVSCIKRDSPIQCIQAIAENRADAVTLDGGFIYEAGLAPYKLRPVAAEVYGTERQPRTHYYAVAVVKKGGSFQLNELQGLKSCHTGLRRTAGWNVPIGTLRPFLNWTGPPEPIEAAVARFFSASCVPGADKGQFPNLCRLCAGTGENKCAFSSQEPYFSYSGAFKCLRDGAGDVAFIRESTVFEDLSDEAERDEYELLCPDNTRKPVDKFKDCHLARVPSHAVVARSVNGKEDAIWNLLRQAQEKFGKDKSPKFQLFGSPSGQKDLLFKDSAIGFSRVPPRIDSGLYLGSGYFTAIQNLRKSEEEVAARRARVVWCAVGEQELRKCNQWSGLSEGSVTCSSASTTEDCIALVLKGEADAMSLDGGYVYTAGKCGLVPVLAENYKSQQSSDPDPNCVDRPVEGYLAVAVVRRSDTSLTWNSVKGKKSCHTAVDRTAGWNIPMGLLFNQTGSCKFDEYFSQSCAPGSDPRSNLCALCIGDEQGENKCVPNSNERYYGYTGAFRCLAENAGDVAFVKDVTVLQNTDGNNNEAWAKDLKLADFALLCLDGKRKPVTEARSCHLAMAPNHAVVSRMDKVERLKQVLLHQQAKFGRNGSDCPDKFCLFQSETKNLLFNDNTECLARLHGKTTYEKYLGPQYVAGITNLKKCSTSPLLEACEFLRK

Substance: trypsinized VLDL Sf100-400, devoid of apoE (tryp-VLDL) (from UniProt P04114 28-4563)
specific binding (0% inhibition) (fmol/mg cell protein) [6]: 140

Substance: trypsinized VLDL2 (tryp-VLDL2) (from UniProt P04114 28-4563)
specific binding (0% inhibition) (fmol/mg cell protein) [6]: 20

Substance: lactoferrin
Percent Inhibition [8]: 4%
Percent Inhibition [9]: 5%

Next, values leading:

Bmax [1]: 160
Kd [1]: 1.4 mg/L
specific binding activity (ng/mg fibroblast cell protein) [2]: 237
specific binding activity (ng/mg THP-1 cell protein) [3]: 24
Bmax [4]: 96
Bmax [5]: 66
Substance: hypertriglyceridemic very low density lipoprotein Sf100-400 (HTG-VLDL) (from UniProt P04114 28-4563; P04114 28-2179; P02649 19-317; P02656 21-99)

percent of binding blocked [7]: 25%
Substance: preimmune IgG (rabbit 1325) (antibody)

Percent Inhibition [10]: 100%
Percent Inhibition [11]: 100%
Percent Inhibition [12]: 100%
Substance: Unlabeled VLDL (20x), P04114 28-4563
